Changes are numbered by the printed parent chain. Where two headings read alike, the source gives them in different places. Bridges are numbered along the chain shown (N, C = ends). Where no end group is shown, it is not given here. [ ]: non-standard residue; d: D form. L1 = C4 bis(bromoacetamide) staple without lipid; L3 = myristic acid-PEG-PEG-ornithine staple; L5 = C18 diacid-Lys-PEG2-ornithine staple; L2 = myristic acid-PEG-ornithine staple; L6 = made as L5 but on Rink amide resin
B1: mTA 63: GLP-2 (H) and L5 (peptide)
peptide: HGDGSFSDEMNTILDNCAARDFICWLIQTKITDPSSGAPPPS
modifications: linker 17-24 via L5; also: staple L5 carries C18 diacid-Lys-PEG2-ornithine lipid
B2: mTA 65: GLP-2 (I) and L3 (peptide)
peptide: B1 peptide with E9C, N16C, C17L, C24N
modifications: linker 9-16 via L3; also: staple L3 carries myristic acid-PEG-PEG-ornithine lipid
B3: mTA 61: GLP-2 (H) and L3 (peptide)
peptide: B1 peptide
modifications: linker 17-24 via L3; also: staple L3 carries myristic acid-PEG-PEG-ornithine lipid
B4: mTA 68: GLP-2 (J) and L3 (peptide)
peptide: B1 peptide with N11C, C17L, A18C, C24N
modifications: linker 11-18 via L3; also: staple L3 carries myristic acid-PEG-PEG-ornithine lipid
B5: mTA 70: GLP-2 (J) and L5 (peptide)
peptide: B1 peptide with N11C, C17L, A18C, C24N
modifications: linker 11-18 via L5; also: staple L5 carries C18 diacid-Lys-PEG2-ornithine lipid

Experiments:
Assay in all cases: cell-based or functional assay
[1] = target: T1, human Glucagon-like peptide 2 receptor (GLP-2R) (human, UniProt O95838 1-553)
T1 sequence (looked up): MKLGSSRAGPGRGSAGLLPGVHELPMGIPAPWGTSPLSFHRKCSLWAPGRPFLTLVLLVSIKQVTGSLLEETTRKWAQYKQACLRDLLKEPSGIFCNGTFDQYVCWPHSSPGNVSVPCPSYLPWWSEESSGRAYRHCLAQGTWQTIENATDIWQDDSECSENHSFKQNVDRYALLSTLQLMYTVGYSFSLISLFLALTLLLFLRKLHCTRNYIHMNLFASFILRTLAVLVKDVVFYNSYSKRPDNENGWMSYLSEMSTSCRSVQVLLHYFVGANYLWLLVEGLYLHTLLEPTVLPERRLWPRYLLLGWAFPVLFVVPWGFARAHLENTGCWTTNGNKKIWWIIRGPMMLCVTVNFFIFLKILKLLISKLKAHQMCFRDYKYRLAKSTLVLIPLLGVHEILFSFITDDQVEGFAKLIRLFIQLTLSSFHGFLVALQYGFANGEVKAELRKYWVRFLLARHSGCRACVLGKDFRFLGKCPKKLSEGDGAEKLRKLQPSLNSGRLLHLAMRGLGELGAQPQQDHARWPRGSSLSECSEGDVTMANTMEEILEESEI

[2] = target: T2, human Glucose-dependent insulinotropic polypeptide receptor (GIPR) (human, UniProt P48546 22-466)
T2 sequence (looked up): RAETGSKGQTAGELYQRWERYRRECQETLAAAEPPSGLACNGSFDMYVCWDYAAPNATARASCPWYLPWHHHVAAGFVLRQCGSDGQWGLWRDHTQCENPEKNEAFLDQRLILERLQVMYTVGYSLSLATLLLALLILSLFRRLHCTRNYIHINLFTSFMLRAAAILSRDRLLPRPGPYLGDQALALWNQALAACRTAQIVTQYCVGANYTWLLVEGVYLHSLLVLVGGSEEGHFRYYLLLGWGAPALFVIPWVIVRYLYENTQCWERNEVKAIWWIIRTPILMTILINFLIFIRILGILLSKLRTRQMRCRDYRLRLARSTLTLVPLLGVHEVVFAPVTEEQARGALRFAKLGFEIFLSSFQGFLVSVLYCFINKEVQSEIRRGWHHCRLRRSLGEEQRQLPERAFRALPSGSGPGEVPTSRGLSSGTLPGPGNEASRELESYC

[3] = target: T3, human glucagon-like peptide 1 receptor (GLP-1R) (human, UniProt P43220 24-463)
[4] = target: T2, human Glucose-dependent insulinotropic …; remark: listed apart in the source
[5] = target: human glucagon receptor (GCGR) (human, UniProt P47871 26-477)
Chain of human glucagon receptor (GCGR) (P47871 26-477): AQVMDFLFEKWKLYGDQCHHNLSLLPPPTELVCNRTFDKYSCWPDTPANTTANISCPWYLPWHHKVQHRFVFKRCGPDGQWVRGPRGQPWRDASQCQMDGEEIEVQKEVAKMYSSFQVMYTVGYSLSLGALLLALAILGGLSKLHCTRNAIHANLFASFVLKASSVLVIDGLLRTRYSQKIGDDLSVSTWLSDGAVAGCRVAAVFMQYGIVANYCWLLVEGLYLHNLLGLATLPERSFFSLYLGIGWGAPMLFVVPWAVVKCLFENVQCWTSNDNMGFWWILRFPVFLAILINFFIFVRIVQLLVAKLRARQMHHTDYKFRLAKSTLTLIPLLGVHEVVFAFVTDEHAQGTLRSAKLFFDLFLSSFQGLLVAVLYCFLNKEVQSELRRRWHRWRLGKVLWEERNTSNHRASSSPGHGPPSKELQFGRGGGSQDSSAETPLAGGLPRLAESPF

[6] = target: T3, human glucagon-like peptide 1 receptor …; remark: listed apart in the source

Binder | EC50, CRE-luciferase reporter in HEK293-GLP-2R-CRE cells [1] | also measured
HGDGSFSDEMCTILDNLCARDFINWLIQTKITD (linker 11-18 via L1) [mTA 57: GLP-2 (G) and L1] | 0.046 nM | 
HGDGSFSDEMCTILDNLCARDFINWLIQTKITD (linker 11-18 via L5) [mTA 58: GLP-2 (G) and L5] | 7.98 nM | 
Y[dA]EGTFTSDYSIYLDKCAAKEFVCWLLAGGPSSGAPPPSK (linker 17-24 via L5) [mTA 43: GLP-1/GIP (A) and L5] |  | EC50, CRE-luciferase reporter in HEK293-GIPR-CRE cells [2]: 1.1 nM; EC50, CRE-luciferase reporter in HEK293-GLP-1R-CRE cells [3]: 0.5 nM
Y[dA]EGTFTSDYSIYLDKCAAKEFVCWLLAGGPSSGAPPPSK (linker 17-24 via L3) [mTA 41: GLP-1/GIP (A) and L3] |  | EC50, CRE-luciferase reporter in HEK293-GIPR-CRE cells [2]: 0.06 nM; EC50, CRE-luciferase reporter in HEK293-GLP-1R-CRE cells [3]: 0.02 nM
HGDGSFSDEMNTILDNCAARDFICWLIQTKITDPSSGAPPPS (linker 17-24 via L1) [mTA 59: GLP-2 (H) and L1] | 0.064 nM | 
B1 | 2.66 nM | 
B2 | 0.06 nM | 
HGDGSFSDEMNTILDNCAARDFICWLIQTKITDPSSGAPPPS (linker 17-24 via L2; also: staple L2 carries myristic acid-PEG-ornithine lipid) [mTA 60: GLP-2 (H) and L2] | 0.068 nM | 
HGDGSFSDEMNTILDNCAARDFICWLIQTKITDPSSGAPPPS (linker 17-24 via L6) [mTA 64: GLP-2 (H) and L6] | 0.7 nM | 
B3 | 0.068 nM | 
HGDGSFSDCMNTILDCLAARDFINWLIQTKITDPSSGAPPPS (linker 9-16 via L5; also: staple L5 carries C18 diacid-Lys-PEG2-ornithine lipid) [mTA 67: GLP-2 (I) and L5] | 3.1 nM | 
B4 | 0.028 nM | 
B5 | 8.8 nM | 
HGDGSFSCEMNTILCALAARDFINWLIQTKITD (linker 8-15 via L1) [mTA 53: GLP-2 (D) and L1] | 14.3 nM | 
HGDGSFSDCMNTILDCLAARDFINWLIQTKITD (linker 9-16 via L5) [mTA 56: GLP-2 (F) and L5] | 0.77 nM | 
HGDGSFSDEMNTILDALAARCFINWLICTKITD (linker 21-28 via L1) [mTA 54: GLP-2 (E) and L1] | 0.13 nM | 
HGDGSFSDCMNTILDCLAARDFINWLIQTKITD (linker 9-16 via L1) [mTA 55: GLP-2 (F) and L1] | 0.064 nM | 
Y[dA]EGTFISDYSKYLDECAAKEFICWLMNTKRNRNNIA (linker 17-24 via L1) [mTA 44: GLP-1/GIP/Glucagon (A) and L1] |  | EC50, CRE-luciferase reporter in HEK293-GIPR-CRE cells [4]: 0.04 nM; EC50, CRE-luciferase reporter in HEK293-GCGR-CRE cells [5]: 1.6 nM; EC50, CRE-luciferase reporter in HEK293-GLP-1R-CRE cells [6]: 9.7 nM
Y[dA]EGTFTSDYSIYLDKCAAKEFVCWLLAGGPSSGAPPPSK (linker 17-24 via L1) [mTA 40: GLP-1/GIP (A) and L1] |  | EC50, CRE-luciferase reporter in HEK293-GIPR-CRE cells [2]: 0.02 nM; EC50, CRE-luciferase reporter in HEK293-GLP-1R-CRE cells [3]: 0.02 nM

Source: patent publication US20180344812A1 (Scripps Research, published 2018)
